The values below come from patent US20200199204A1 (UNITED STATES OF AMERICA AS REPRESENTED BY THE SECRETARY …, published 2020).

Experiment in all cases: cell-based or functional assay
Assay [1] deals with HIV-1 Env of strain CNE3 (clade AE), on Env-pseudovirus (HIV-1 strain CNE3).
Assay [2] concerns the target HIV-1 Env of strain TH976.17 (clade AE), on Env-pseudovirus (HIV-1 strain TH976.17).
Assay [3] deals with HIV-1 Env of CAP256.PI (HIV-1).
Assay [4] concerns the target HIV-1 Env of CAP256.SU (HIV-1).
Assay [5] has as its target HIV-1 Env of 96ZM651.02 (HIV-1).
Assay [6] concerns the target HIV-1 Env of CAP210.E8 (HIV-1).
Assay [7] deals with HIV-1 Env of CAP244.D3 (HIV-1).
Assay [8] deals with HIV-1 Env of CAP45.G3 (HIV-1).
Assay [9] deals with HIV-1 Env of DU156.12 (HIV-1).
For assay [10], the target named is HIV-1 Env of DU172.17 (HIV-1).
Assay [11] deals with HIV-1 Env of DU422.01 (HIV-1).
The target of assay [12] is HIV-1 Env of ZM109.4 (HIV-1).
Assay [13] deals with HIV-1 Env of ZM135.10a (HIV-1).
Assay [14] has as its target HIV-1 Env of ZM197.7 (HIV-1).
Assay [15] deals with HIV-1 Env of ZM214.15 (HIV-1).
Assay [16] deals with HIV-1 Env of ZM233.6 (HIV-1).
Assay [17] deals with HIV-1 Env of ZM249.1 (HIV-1).
Assay [18] concerns the target HIV-1 Env of ZM53.12 (HIV-1).
The target in assay [19] is HIV-1 Env of 0260.v5.c36 (HIV-1).
Assay [20] has as its target HIV-1 Env of BG505.w6m (HIV-1).
Assay [21] deals with HIV-1 Env of KER2008.12 (HIV-1).
Assay [22] has as its target HIV-1 Env of KER2018.11 (HIV-1).
The target of assay [23] is HIV-1 Env of MB201 (HIV-1).
In assay [24] the target is HIV-1 Env of MB539.2B7 (HIV-1).
The target of assay [25] is HIV-1 Env of Q168.a2 (HIV-1).
Assay [26] deals with HIV-1 Env of Q23.17 (HIV-1).
Assay [27] deals with HIV-1 Env of Q259.d2.17 (HIV-1).
Assay [28] concerns the target HIV-1 Env of Q461.e2 (HIV-1).
For assay [29], the target named is HIV-1 Env of Q769.d22 (HIV-1).
Assay [30] concerns the target HIV-1 Env of Q842.d12 (HIV-1).
The target in assay [31] is HIV-1 Env of RW020.2 (HIV-1).
Assay [32] concerns the target HIV-1 Env of UG037.8 (HIV-1).
The target in assay [33] is HIV-1 Env of 6535.3 (HIV-1).
The target in assay [34] is HIV-1 Env of AC10.29 (HIV-1).
Assay [35] deals with HIV-1 Env of CAAN.A2 (HIV-1).
Assay [36] deals with HIV-1 Env of PVO.04 (HIV-1).
The target of assay [37] is HIV-1 Env of QH0692.42 (HIV-1).
The target in assay [38] is HIV-1 Env of REJO.67 (HIV-1).
Assay [39] deals with HIV-1 Env of RHPA.7 (HIV-1).
In assay [40] the target is HIV-1 Env of SC422.8 (HIV-1).
Assay [41] has as its target HIV-1 Env of THRO.18 (HIV-1).
The target of assay [42] is HIV-1 Env of TRJO.58 (HIV-1).
Assay [43] deals with HIV-1 Env of TRO.11 (HIV-1).
For assay [44], the target named is HIV-1 Env of WITO.33 (HIV-1).
Assay [45] concerns the target HIV-1 Env of 191821.E6.1 (HIV-1).
In assay [46] the target is HIV-1 Env of 3016.V5.c36 (HIV-1).
Assay [47] deals with HIV-1 Env of 6405.v4.c34 (HIV-1).
Assay [48] addresses HIV-1 Env of C1080.c3 (HIV-1).
The target of assay [49] is HIV-1 Env of CM244.ec1 (HIV-1).
The target in assay [50] is HIV-1 Env of CNE3 (HIV-1).
Assay [51] addresses HIV-1 Env of TH976.17 (HIV-1).

B1: CAP256-VRC26.07 (antibody, V domains shown)
VH: EVQLVESGGGVVQPGRSLRLSCVGSQFSFNRYGMHWVRQAPGKGLEWVAGISFDGTDRYHADNVWGRFTISRDNSKNTLYLQMSSLRAEDTALYYCAKDLREDECEEWWSDYYDFGKKLPCRKSRGVAGVFDKWGQGTMVTVSS
VL: QAVLTQPPSVSAAPGQNVTISCSGSGSNIGNNFVSWYQQRPGTAPKLLIYESNKRPSGIPDRFSGSKSGTSATLAITGLQTGDEAYYYCATWAARLNSARVFGTGTMVTVLG
For B1, the “IC50, neutralization of Env-pseudovirus (TZM-bl assay)” value in [1] and in assay [2] was over 50 µg/mL throughout.

B2: CAP256-VRC26.11 (antibody, V domains shown)
VH: EVQLVESGGGVVPPGKSLTLSCVASRFTFSAFGMHWVRQAPGKGLEWVASISFAGIKKYYADSVKGRFSISRDNSNTLFLQMNGLRGEDTGLYHCVKDMRELECEEWASDYYDFGKPQPCLDRRGVSGISAWWGPGTMVTVSS
VL: QSVLTQPPSVSAAPGQNVTISCSGPPSHIEKNDVSWYQRLPGMAPKMVIYESKRRPLGIPVRFSASRSGSSATLVITGLQTADEADYYCGTWDGRMNFGTGTTVSVLG
As for B2, the “IC50, neutralization of Env-pseudovirus (TZM-bl assay)” value in assay [1] and in assay [2] was over 50 µg/mL in each case.

B3: CAP256-VRC26.04 (antibody, V domains shown)
VH: EVQLVESGGGVVQPGKSLRLSCAASQFSFNRYGMHWVRQAPGKGLEWVAAISYDGTDKYHADKVWGRFTISRDNSKNTLYLQMNSLRAEDTALYYCAKDLREDECEEWWSDYYDFGKQLPCRKSRGVAGIFDKWGQGTMVIVSS
VL: QPVLTQPPSVSAAPGQKVTISCSGSSSNIGNNFVSWYQQRPGTAPSLLIYETNKRPSGIPDRFSGSKSATSATLAITGLQTGDEADYYCATWAASLTSARVFGTGTKVIVSG
Take B3: the “neutralization IC50” value in assay [3] was over 50 µg/mL; in assay [4] it was 0.003 µg/mL; in [5], over 50 µg/mL; in assay [6] it was 0.005 µg/mL; in assay [7] it was over 50 µg/mL; in assay [8], over 50 µg/mL. Moreover, the “neutralization IC50” value in [9] is 10.4 µg/mL; in assay [10], over 50 µg/mL; in assay [11] it was 4.17 µg/mL; in assay [12] it was over 50 µg/mL; in [13], over 50 µg/mL; in assay [14] it was 0.254 µg/mL. Further, the “neutralization IC50” value in assay [15] is over 50 µg/mL; in assay [16], 0.06 µg/mL; in assay [17] it was 11.4 µg/mL; in [18] it was 0.004 µg/mL; in assay [19], over 50 µg/mL; in [20], 8.43 µg/mL. In addition, the “neutralization IC50” value in assay [21] was over 50 µg/mL; in assay [22], 0.008 µg/mL; in assay [23], over 50 µg/mL; in assay [24], over 50 µg/mL; in [25], over 50 µg/mL; in [26] it was 23.6 µg/mL. In addition, the “neutralization IC50” value was 0.025 µg/mL in assay [27]; over 50 µg/mL in [28]; over 50 µg/mL in assay [29]; over 50 µg/mL in [30]; over 50 µg/mL in assay [31]; over 50 µg/mL in [32]. The “neutralization IC50” value in [33], in [34], in assay [35], in assay [36], in [37] and in [38] was over 50 µg/mL throughout. In addition, the “neutralization IC50” value in assay [39], in assay [40], in assay [41], in [42], in assay [43] and in assay [44] was over 50 µg/mL throughout. In addition, the “neutralization IC50” value was over 50 µg/mL in [45]; 0.283 µg/mL in [46]; over 50 µg/mL in assay [47]; 0.212 µg/mL in [48]; 0.361 µg/mL in [49]; over 50 µg/mL in assay [50]. Moreover, in [51], the “neutralization IC50” value was over 50 µg/mL.
